From EP4643867A1 (Eberhard Karls Universität Tübingen (Medizinische Fakultät), dated 2025)
Several values for one entry are separate records, joined by “and”; a condition that tells them apart may be missing. Identical values can stand only once.

Columns and labels:
[1] = target: VEGF (autocrine, of U937 acute myeloid leukemia cells) (UniProt P15692-4 27-191, limits assumed); experiment: cell-based or functional assay
[2] = target: T1, Recombinant Human VEGF165 (R&D Systems, 293-VE-010/CF) (human, UniProt P15692 27-191); experiment: SPR (Biacore X100), rhVEGF165 amine-coupled to CM5 chip, design as analyte, multi-cycle kinetics, 1:1 binding assumed
T1 construct: mature; Amine-coupled to a CM5 chip for SPR, and added to the medium in the HUVEC survival assay; also called rhVEGF
T1 sequence (P15692 other isoform, or with tags, fused parts or gaps): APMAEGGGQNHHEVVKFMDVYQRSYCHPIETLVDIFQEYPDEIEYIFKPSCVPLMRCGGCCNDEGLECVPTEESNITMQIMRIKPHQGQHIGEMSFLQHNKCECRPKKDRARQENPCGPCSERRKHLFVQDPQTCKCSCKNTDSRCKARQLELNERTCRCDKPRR

Chain of VEGF (autocrine, of U937 acute myeloid leukemia cells) (P15692 other isoform, or with tags, fused parts or gaps limits assumed): as the sequence (P15692 other isoform, or with tags, fused parts or gaps) above

B1: Sam0.7 (designed binder)
chain: LPTAEEVQKLMARYIELMDVGDIEAIVQMYADDATVEAPFGAPPIHGRERIAYFYRRMLGGGIARATLTGPVRASHNGTGAMPFRVEYVFNGQPFAMDVRVEMRFDEHGRIQTMQAYWDWVNLSVREP
notes: Designed on the ketosteroid isomerase scaffold (PDB 1OH0); Made in E. coli; The monomeric gel filtration fraction was used; not shown: N-terminal poly-histidine tag and thrombin cleavage site from pET28a(+)
- IC50, proliferation of U937 cells [1]: 8 µg/ml and 533 nM
- Kd [2]: 190 nM

B2: Sima3.2 (designed binder)
chain: STNISPKQGLDKAKYFSGKWYLTHVLIKDPKIVSQFCASFTPRESDGTVKIAVYLYLAIKKTSDYAIGEGKLESSGLQYTATSKVVDKKKAVLKELDERHSYTVTVLEADDSSALTHITVREGSKDYGDYYLVLTHQKDAEPSAKVKSAVTQAGLQLSQFVGTKDLGCQYDDQFTSL
notes: not shown: N-terminal poly-histidine tag and thrombin cleavage site from pET28a(+)
- IC50, proliferation of U937 cells [1]: 3.6 µg/ml and 180 nM
- Kd [2]: 14 nM
